These results are taken from PMC8237747 (Journal for Immunotherapy of Cancer, 2021).

The labels stand for the following.
B4: cyno 4-1BB overexpressed on CHO cells (receptor)
chain: LQDLCSNCPAGTFCDNNRSQICSPCPPNSFSSAGGQRTCDICRQCKGVFKTRKECSSTSNAECDCISGYHCLGAECSMCEQDCKQGQELTKKGCKDCCFGTFNDQKRGICRPWTNCSLDGKSVLVNGTKERDVVCGPSPADLSPGASSATPPAPAREPGHSPQIIFFLALTSTVVLFLLFFLVLRFSVVKRSRKKLLYIFKQPFMRPVQTTQEEDGCSCRFPEEEEGGCEL

Test [1] deals with B4. The test can be described thus: flow cytometry on cells. A general note: Flow cytometry measures light scatter and fluorescence of single cells or particles in a stream.
Test [2] addresses HZ-L-Yr-16-Fc. In words: ELISA.
Test [3] deals with HZ-L-Yr-16-Fc. In words: flow cytometry on cells.

B1: Urelumab (antibody, V domains shown)
VH: QVQLQQWGAGLLKPSETLSLTCAVYGGSFSGYYWSWIRQSPEKGLEWIGEINHGGYVTYNPSLESRVTISVDTSKNQFSLKLSSVTAADTAVYYCARDYGPGNYDWYFDLWGRGTLVTVSS
VL: EIVLTQSPATLSLSPGERATLSCRASQSVSSYLAWYQQKPGQAPRLLIYDASNRATGIPARFSGSGSGTDFTLTISSLEPEDFAVYYCQQRSNWPPALTFGGGTKVEIK
Turning to B1, in test [1], the binding result is given as “no binding”.

B2: Human GITR (receptor)
chain: QRPTGGPGCGPGRLLLGTGTDARCCRVHTTRCCRDYPGEECCSEWDCMCVQPEFHCGDPCCTTCRHHPCPPGQGVQSQGKFSFGFQCIDCASGTFSGGHEGHCKPWTDCTQFGFLTVFPGNKTHNAVCVPGSPPAEP
With B2, the binding result with HZ-L-Yr-16-Fc [2] is given as “no binding”.

B3: Human OX40 (receptor)
chain: LHCVGDTYPSNDRCCHECRPGNGMVSRCSRSQNTVCRPCGPGFYNDVVSSKPCKPCTWCNLRSGSERKQLCTATQDTVCRCRAGTQPLDSYKPGVDCAPCPPGHFSPGDNQACKPWTNCTLAGKHTLQPASNSSDAICEDRDPPATQPQETQGPPARPITVQPTEAWPRTSQGPSTRPVEVPGGRA
B3: in the test with HZ-L-Yr-16-Fc [2], the binding result was “no binding”.

With B4, in the test with HZ-L-Yr-16-Fc [3], the binding result is “binds”.
